Assay [1] addresses His-tagged recombinant human SMN protein (ProteinTech, catalog # ag14333) (human) (UniProt Q16637). The experiment in a line: Erenna sandwich assay, capture MABE230 12.5 µg/mg MPs; Det Ab 1000 ng/mL; SMN 0.46 pg/mL.
For assay [2], the target named is endogenous SMN protein in human CSF (human) (UniProt Q16637). Put plainly: Erenna sandwich assay, capture MABE230; human CSF sample 1, unspiked (endogenous SMN only).
Assay [3] has as its target His-tagged recombinant human SMN protein (ProteinTech, catalog # ag14333) (human) (UniProt Q16637). The experiment in a line: Erenna sandwich assay, capture MABE230; human CSF sample 5 spiked with recombinant SMN 5.0 pg/mL (endogenous SMN also present).
For assay [4] the target is unchanged. Put plainly: Erenna sandwich assay, capture MABE230 12.5 µg/mg MPs; Det Ab 1000 ng/mL; SMN 3.70 pg/mL.
Assay [5] has the same target. Put plainly: Erenna sandwich assay, capture MABE230; human CSF sample 1 spiked with recombinant SMN 5.0 pg/mL (endogenous SMN also present).
Assay [6] shares this target. Put plainly: Erenna sandwich assay, capture MABE230 12.5 µg/mg MPs; Det Ab 1000 ng/mL; SMN 0.23 pg/mL.
Assay [7] shares this target. The experiment in a line: Erenna sandwich assay, capture MABE230 12.5 µg/mg MPs; Det Ab 1000 ng/mL; SMN 0.06 pg/mL.
Assay [8] has the same target. The experiment in a line: Erenna sandwich assay, capture MABE230; SMN 2 pg/mL, MPs 10 µg/well, Det Ab 500 ng/mL, Cap Ab/MP 25 µg/mg.
Assay [9] shares this target. Put plainly: Erenna sandwich assay, capture MABE230; SMN 2 pg/mL, MPs 10 µg/well, Det Ab 1000 ng/mL, Cap Ab/MP 25 µg/mg.
Assay [10] has the same target. Put plainly: Erenna sandwich assay, capture MABE230 12.5 µg/mg MPs; Det Ab 500 ng/mL; SMN 22.22 pg/mL.

As for “ProteinTech anti-SMN2 (catalog #60154-1-Ig) (antibody)”, the detected events (DE) (detected events) in [1] was determined as 630; in assay [2], 330; in assay [3], 6070; in [4] it was 4330; in assay [5] it was 5070; in assay [6], 330. Moreover, the detected events (DE) (detected events) in assay [7] is 125; in [8], 2400; in assay [9], 2670; in assay [10], 12200. In addition, the event photons (EP) (event photons) in assay [1] stood at 87400; in [4], 706000; in assay [6] it was 44800; in assay [7] it was 15900; in [10], 3.85e+06.

The values are drawn from patent US20170363643A1.
